Where a chain is given by its changes, count along the chain named. In names and notes the source's numbering stands. Values belong to the binder of their own block, whether it stands above or below them.
How the values were obtained:
[1] = target: recombinant human soluble gpNMB (recombinant human gpNMB-FLAG-His) (human) (UniProt Q14956); assay: antigen ELISA, vs hGPN06-1_H1L1
[2] = target: recombinant human soluble gpNMB (recombinant human gpNMB-FLAG-His) (human) (UniProt Q14956); assay: antigen ELISA

Relative binding activity [1]: 0
EC50 [2]: 25.3 nM
B1: hGPN06-1_H1L1 VL Y93A (antibody, V domains shown)
VH: QVQLVQSGAEVKKPGASVKVSCKASGYTFTDNWMGWVKQRPGQGLEWIGAIDPSDSFTNYNQNFKGRVTMTVDTSISTAYMELSRLRSDDSAVYFCTRSGYYGSPKLGGDYWGQGTLVTVSS
VL: EIVLTQSPSSLSASVGDRVTITCSASSSISYMHWYQQKSGTAPKLLIYSTSNLASGVPSRFSGSGSGTDFTFTISSLQPEDAATYYCHQWNSAPCTFGGGTKLEIK

Relative binding activity [1]: 0
EC50 [2]: 31.5 nM
B2: hGPN06-1_H1L1 VH D55A (antibody, V domains shown)
VH: B1 VH with D55A
VL: B1 VL with A93Y
